Test results: the domain aggregation screens of Martell et al. (2025)

Assay: soluble fraction after stress (log2 fold change); higher = more stays soluble; pooled small domains, quantitative proteomics
Settings: stress: 75 degC
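Note: 20 min heating vs room temperature control held 20 min.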

Sequence	soluble fraction (log2)
HMTAGTTALNKLQQGMSTQQVQAALGTPSDRTVKESGVELWKYYYPYENMLLYLKFRDGHLVSFGTN	-0.594
HMTAKQDLDSIYRHLVATRKSIAENPKMVSSIDDPQALIKMLDYAIQYFYTDKRDEALAVLEKNEEQLNFR	-0.347
HMTALTTEDLERRFYAKTYEGESAQKRLARLEISVFGELRQGRPESDRLHDLNNAVLEKERAALNAGAVG	0.063
HMTAMQYVTIKDIADALGISKSSVSRALAGDVHNVSAQTIERVRAKALEMGYLRNNAAVNLR	-0.413
HMTANDKRNALYRKIEVGRRQLPAMDEVAFRQLLAAEFGVESRKDMSVGQLSRLVNILAEKGAVF	-0.741
HMTANTLDLTYSQFLENVKNGSVNDVTIRGNNVSGNFSDGRKFKTYAVNDPTLVEKLTKMGVNISAAPL	0.405
HMTAPELSVGDYLEYRGKEYKVESLDMDGFITLTDTALEDAPRLISRVTFLTDEFIRSGEYMVIT	-0.811
HMTAQGDSSDAVQRAITEILRHEDPSHPFSDQQLVIKLRTMDISVSRRTVTKYRKLLHIPSSTHRK	-3.12
HMTARYQQVEDYIVRRIQDGSWPPGHRLPSEHELVQQFGMSRMTVNRALRDLMQKGRIVRVAGVGSFVAQD	-1.98
HMTATSKKAAWDEVNKIFPTDYERSAAESERAGYAIFRSTAEGVNAWISDLGDRLEINLPDGKTVNIWIEE	-0.0996
HMTATVPDSEAGIRLDVYAAALLGVSRAGAQKYIESGAVRVNGLPAPKNRRLESGDVIEAVLPDPE	0.194
HMTAVAAEQQAQDAYRQTAANNLNEIQAKYKLPDSESDDFFTFAYERGFTQEDFIDIGLVDKIMGDYV	0.19
HMTAVNEHELMNQFKLSLGYANGDDPQTKLSTDEKNDFMRFKEWATAMTKDSKMGKDPDYLKKLAVQWTLK	0.278
HMTAYEGLPVTLIIDGRVFQQNLQKMNLSVEWLRLELKKFGVTNLKEVLFASLDTEGKLFYQLKT	-0.792
HMTDEYYSYIGKTGTTITVLRPAGIAEVEGERLNVVSEGEFIRKGAAILVKEVEGARILVEEVN	-0.58
HMTDFESYTVRVTATNLNIRKGAGTNFHSAGYIKPGVYTIVEEADGKGATRWGKLKSGMGWISLDYAKK	-1.04
HMTDGYAMRLERLNSLEEYVLNKGTVSLEDLAERFGVSINTIRRDLNELISRGQIKKVYGGVSSLHD	-0.252
HMTDIDATSIERAVAKRRHFFLSNIQDLTMKMARRLIEKDLGLAPKHLDAAPFKTRITELVDAVIALGD	-0.393
HMTDIKYLIADGNDIKHWDTASSSYVKVSELPLTSDKFKIYGDDIYHKERTGIIAASPILKIWSPSAE	0.384
HMTDKLIAYSVDGILNVITSEAQSVKVYAIDGRLVRILQLGEGRNEVSGLAKGIYIVDNRKVAV	-2.71
HMTDLNQIGERIKGLRDALGYSPEKMASILEQKVDDYLAYEEGTKDISLSVLQRIEKEFDIDLSTLLFGT	-0.333
HMTDRKRDAIVQAAIGEFREHGFNGTSMDRVAAAADVSKRTVYNHFPSKEELFEAILLLMWE	-1.93
HMTDSISLTLNGDPRPFRAGATVADLVRDIGLDPAKVAVERNLEIVPRSTLENVHLADGDVLEIVHFV	0.0689
HMTDTIALRSVIAESGLKYKALAEIMGLSPYTLQMKIDNESEFKASEIDALANALGMDMQQRDSIFF	-0.536
HMTDVIADMLTRIRNAASSKHQTVDIPSSNLKKEIAKILLEEGYIRDFIEIDDKKQGIIRITL	-0.692
HMTDYREILRLLSLGLSRTQIADSLNVSRTTVIHTLQRAVAQELDWQTAEGMSDRELVAKLFPV	-3.95
HMTEAVYMPALQNKTLEEAQRIVEQYDLELEYTYEANAQVEEGRILSQTPQMGVLVERGEKVQAVVSLG	1.01
HMTEDELLAQFEEILDGYVGKPGGLIPALQTAQKLFGYLPKRVLQLISMKLDIPYSEVTGVVSFYSFFTTV	0.28
HMTEEEEFEKGFEILVNLSHFNRFSVYKEDEYVIVRIADYDFNEYFKVKKSDVGRIAEFLNENIT	-2.61
HMTEELLNQRKETMLALLNDPTYVPMKLKELAMLLNLSRDQRDELREVMESLEQDGKVILTKRGKYKIP	-0.261
